Laboratory results reported in publication doi:10.1101/2024.11.29.625639.

Molecular target: HCMV gHgLgO trimer with gO249 mutant, from virions (human cytomegalovirus, strain TB40/E (TB40-BAC4))
Assay: co-IP + pull-down

## HCMV glycoprotein gB, from virions (natural protein)
  fold change of the interaction with gB against gHgLgOWT: 4 fold
